The record followed here is US20140031294A1 (NOVOZYMES BIOPHARMA UK, published 2014).

In this assay the target is transferrin receptor on human erythroleukemic K562 cells (human, UniProt P02786 1-760). Put plainly: cell-based or functional assay.
transferrin receptor on human erythroleukemic K562 cells, sequence (P02786 whole entry): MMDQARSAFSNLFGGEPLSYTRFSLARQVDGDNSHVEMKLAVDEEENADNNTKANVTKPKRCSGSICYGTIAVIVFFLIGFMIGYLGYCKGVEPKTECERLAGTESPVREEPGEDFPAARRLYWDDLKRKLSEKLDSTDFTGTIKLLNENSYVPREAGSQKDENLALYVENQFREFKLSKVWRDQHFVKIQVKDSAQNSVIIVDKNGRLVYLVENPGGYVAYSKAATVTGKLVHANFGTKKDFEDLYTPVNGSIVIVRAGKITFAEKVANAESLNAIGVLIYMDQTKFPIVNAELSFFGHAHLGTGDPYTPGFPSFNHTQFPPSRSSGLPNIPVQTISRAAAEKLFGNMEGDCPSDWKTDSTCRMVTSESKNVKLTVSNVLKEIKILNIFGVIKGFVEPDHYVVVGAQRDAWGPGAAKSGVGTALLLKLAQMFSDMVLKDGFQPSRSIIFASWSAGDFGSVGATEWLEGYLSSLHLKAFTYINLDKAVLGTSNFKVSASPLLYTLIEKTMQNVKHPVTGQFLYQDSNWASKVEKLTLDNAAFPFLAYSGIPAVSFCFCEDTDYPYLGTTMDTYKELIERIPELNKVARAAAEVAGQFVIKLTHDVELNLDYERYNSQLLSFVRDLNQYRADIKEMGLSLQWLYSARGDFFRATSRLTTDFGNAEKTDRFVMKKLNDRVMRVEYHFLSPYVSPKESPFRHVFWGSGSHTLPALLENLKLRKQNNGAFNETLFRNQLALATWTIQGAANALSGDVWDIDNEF

B1: recombinant transferrin (N413Q, N611Q) (ligand)
chain: VPDKTVRWCAVSEHEATKCQSFRDHMKSVIPSDGPSVACVKKASYLDCIRAIAANEADAVTLDAGLVYDAYLAPNNLKPVVAEFYGSKEDPQTFYYAVAVVKKDSGFQMNQLRGKKSCHTGLGRSAGWNIPIGLLYCDLPEPRKPLEKAVANFFSGSCAPCADGTDFPQLCQLCPGCGCSTLNQYFGYSGAFKCLKDGAGDVAFVKHSTIFENLANKADRDQYELLCLDNTRKPVDEYKDCHLAQVPSHTVVARSMGGKEDLIWELLNQAQEHFGKDKSKEFQLFSSPHGKDLLFKDSAHGFLKVPPRMDAKMYLGYEYVTAIRNLREGTCPEAPTDECKPVKWCALSHHERLKCDEWSVNSVGKIECVSAETTEDCIAKIMNGEADAMSLDGGFVYIAGKCGLVPVLAENYQKSDNCEDTPEAGYFAVAVVKKSASDLTWDNLKGKKSCHTAVGRTAGWNIPMGLLYNKINHCRFDEFFSEGCAPGSKKDSSLCKLCMGSGLNLCEPNNKEGYYGYTGAFRCLVEKGDVAFVKHQTVPQNTGGKNPDPWAKNLNEKDYELLCLDGTRKPVEEYANCHLARAPNHAVVTRKDKEACVHKILRQQQHLFGSQVTDCSGNFCLFRSETKDLLFRDDTVCLAKLHDRNTYEKYLGEEYVKAVGNLRKCSTSSLLEACTFRRP
Turning to B1, the “Apparent Affinity (competition against 55Fe uptake from labelled plasma transferrin by K562 cells)” value turned out to be 123 nM.
